The source of these data is publication PMC4486954, “Highly homologous proteins exert opposite biological activities by using different interaction interfaces” (Scientific Reports, 2015).

The target of one experiment is T1, HLT-iASPP Pro (human, UniProt Q8WUF5 1-602).
T1 construct: iASPP (human), proline rich (Pro) domain, residues 1-602 of the 828-residue protein, Swiss-Prot Q8WUF5; Cloned EcoRI/NotI into pHis parallel 2HLT; calculated Mw with tag 75.9 kDa; also called iASPP Pro 1-602; iASPP 1-602; source: E. coli Rosetta2, purified (Nickel Sepharose, size exclusion chromatography); not shown: HLT (His tag, lipoyl domain, TEV protease cleavage site), N-terminal, kept
T1 sequence (looked up): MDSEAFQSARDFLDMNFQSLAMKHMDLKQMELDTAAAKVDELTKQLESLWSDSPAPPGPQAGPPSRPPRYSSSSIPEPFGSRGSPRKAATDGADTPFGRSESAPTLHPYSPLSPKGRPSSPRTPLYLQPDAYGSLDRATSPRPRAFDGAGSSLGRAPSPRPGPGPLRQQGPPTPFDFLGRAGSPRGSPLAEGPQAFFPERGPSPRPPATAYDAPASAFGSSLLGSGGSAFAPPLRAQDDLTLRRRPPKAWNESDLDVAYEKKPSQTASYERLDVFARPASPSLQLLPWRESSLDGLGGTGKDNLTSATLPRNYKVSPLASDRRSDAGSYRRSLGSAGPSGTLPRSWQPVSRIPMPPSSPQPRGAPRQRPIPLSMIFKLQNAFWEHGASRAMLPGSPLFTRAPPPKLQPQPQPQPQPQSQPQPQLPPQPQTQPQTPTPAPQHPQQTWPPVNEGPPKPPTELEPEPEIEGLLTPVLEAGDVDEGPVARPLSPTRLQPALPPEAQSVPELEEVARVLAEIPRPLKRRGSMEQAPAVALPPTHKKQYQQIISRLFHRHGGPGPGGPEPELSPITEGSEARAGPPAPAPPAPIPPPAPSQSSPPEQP
The experiment in a line: pull-down; Nickel-NTA beads loaded with HLT-iASPP Pro (1.7 uM), HLT (31 uM) or buffer, 1 h, 4 °C, 40 mM imidazole; then iASPP Ank-SH3 (80 ul of 80 uM, diluted in 1 ml 25 mM phosphate pH 7.0, 10% glycerol, 25 mM imidazole, 100 mM NaCl), 2 h, 4 °C; three washes; eluted by boiling in SDS; Coomassie-stained SDS-PAGE. The settings on record: both partners purified.

In another experiment the target is T2, iASPP Ank-SH3 (Homo sapiens, UniProt Q8WUF5).
T2 construct: (2) iASPP Ank-SH3 603-828; HLT tag (His tag + lipoyl domain + TEV site) (N, cleaved yes); made in house; host or cells: E. coli HMS 174 (Novagen)
T2 sequence (Q8WUF5 603-828): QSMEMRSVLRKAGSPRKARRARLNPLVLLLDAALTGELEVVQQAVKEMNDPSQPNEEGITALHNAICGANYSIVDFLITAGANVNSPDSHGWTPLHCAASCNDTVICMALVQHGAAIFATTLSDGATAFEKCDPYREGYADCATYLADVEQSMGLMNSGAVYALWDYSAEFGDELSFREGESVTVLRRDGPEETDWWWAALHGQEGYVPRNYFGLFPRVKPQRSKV
Description: Nickel affinity pulldown of iASPP Ank-SH3 by HLT-iASPP Pro. In kind it is binding. The settings on record: Nickel-NTA beads with HLT-iASPP Pro 1 h at 4 °C, then iASPP Ank-SH3 2 h at 4 °C; SDS-PAGE coomassie staining. As to the method: After purifying the recombinant HLT-iASPP Pro and iASPP Ank-SH3 we tested whether the recombinant proteins interact using Nickel affinity pulldown assay. Nickel-NTA beads were incubated for one hour with HLT-iASPP Pro or with buffer or HLT alone. Then the beads were incubated with iASPP Ank-SH3 for two hours.
Figure 4 HLT-iASPP Pro interacts with iASPP Ank-SH3 in vitro. Nickel affinity pulldown of iASPP Ank-SH3 by HLT-iASPP Pro, SDS PAGE gel coomassie staining results. Nickel-NTA beads were incubated with HLT-iASPP Pro or with buffer or HLT fusion domain alone, for 1 h at 4 °C. The samples were centrifuged and then incubated with iASPP Ank-SH3 for 2 h at 4 °C. The samples were centrifuged again and the beads were washed 3 times. The beads were eluted by boiling them in SDS solution. Ank-SH3 eluted from the beads only in the presence of HLT-iASPP Pro.
30 μl Nickel-NTA beads (Qiagen) were incubated with: (1) 500 μl buffer C (50 mM Phosphate buffer pH = 7.0, 300 mM NaCl, 10% glycerol, 0.02% NaN3 and 0.001% Tween 20); (2) 250 μl 31 μM HLT; (3) 2 ml 1.7 μM HLT-iASPP Pro (in buffer C) for 1 hour with gentle mixing at 4 °C and in the presence of 40 mM imidazole. The samples were centrifuged (2 min 3500 RPM), and washed with buffer C (5 min, 4 °C, gentle mixing). […] Samples were analyzed on a 10% SDS-PAGE gel.

B1: iASPP Ank-SH3 (domain or fragment, human, UniProt Q8WUF5 603-828, looked up)
chain: QSMEMRSVLRKAGSPRKARRARLNPLVLLLDAALTGELEVVQQAVKEMNDPSQPNEEGITALHNAICGANYSIVDFLITAGANVNSPDSHGWTPLHCAASCNDTVICMALVQHGAAIFATTLSDGATAFEKCDPYREGYADCATYLADVEQSMGLMNSGAVYALWDYSAEFGDELSFREGESVTVLRRDGPEETDWWWAALHGQEGYVPRNYFGLFPRVKPQRSKV
notes: iASPP (human), four ankyrin repeats and SH3 domain, residues 603-828, Swiss-Prot Q8WUF5; also called iASPP Ank-SH3 603-828; cleaved iASPP Ank-SH3; source: E. coli HMS 174, purified (Nickel Sepharose, TEV cleavage, second Nickel column, size exclusion chromatography); not shown: HLT (His tag, lipoyl domain, TEV protease cleavage site), N-terminal, cleaved
Turning to B1, the binding result with HLT-iASPP Pro was “binds”.

B2: HLT-iASPP Pro: recombinant iASPP Pro 1-602 with HLT (His-lipoyl domain-TEV) tag (protein)
chain: MDSEAFQSARDFLDMNFQSLAMKHMDLKQMELDTAAAKVDELTKQLESLWSDSPAPPGPQAGPPSRPPRYSSSSIPEPFGSRGSPRKAATDGADTPFGRSESAPTLHPYSPLSPKGRPSSPRTPLYLQPDAYGSLDRATSPRPRAFDGAGSSLGRAPSPRPGPGPLRQQGPPTPFDFLGRAGSPRGSPLAEGPQAFFPERGPSPRPPATAYDAPASAFGSSLLGSGGSAFAPPLRAQDDLTLRRRPPKAWNESDLDVAYEKKPSQTASYERLDVFARPASPSLQLLPWRESSLDGLGGTGKDNLTSATLPRNYKVSPLASDRRSDAGSYRRSLGSAGPSGTLPRSWQPVSRIPMPPSSPQPRGAPRQRPIPLSMIFKLQNAFWEHGASRAMLPGSPLFTRAPPPKLQPQPQPQPQPQSQPQPQLPPQPQTQPQTPTPAPQHPQQTWPPVNEGPPKPPTELEPEPEIEGLLTPVLEAGDVDEGPVARPLSPTRLQPALPPEAQSVPELEEVARVLAEIPRPLKRRGSMEQAPAVALPPTHKKQYQQIISRLFHRHGGPGPGGPEPELSPITEGSEARAGPPAPAPPAPIPPPAPSQSSPPEQP
modifications: left off: HLT (His tag, lipoyl domain, TEV protease cleavage site), N-terminal, kept
notes: recombinant iASPP Pro 1-602 with HLT (His-lipoyl domain-TEV) tag
Regarding B2, the “pulldown of iASPP Ank-SH3” value in the experiment with iASPP Ank-SH3 is on record as “retrieved”.
